# In US6403325B1, “Methods and compounds for treating alzheimer's disease” (priority 1997, dated 2002):
# B1: Wnt5a: Wnt family member expressed in C57MG cells from a Wnt5a retrovirus (protein, UniProt P22725 62-380, looked up)
# Protein Wnt-5a: IIGAQPLCSQLAGLSQGQKKLCHLYQDHMQYIGEGAKTGIKECQYQFRHRRWNCSTVDNTSVFGRVMQIGSRETAFTYAVSAAGVVNAMSRACREGELSTCGCSRAARPKDLPRDWLWGGCGDNIDYGYRFAKEFVDARERERIHAKGSYESARILMNLHNNEAGRRTVYNLADVACKCHGVSGSCSLKTCWLQLADFRKVGDALKEKYDSAAAMRLNSRGKLVQVNSRFNSPTTQDLVYIDPSPDYCVRNESTGSLGTQGRLCNKTSEGMDGCELMCCGRGYDQFKTVQTERCHCKFHWCCYVKCKKCTEIVDQFVCK
# B2: Wnt1: Wnt1 protein, member of the Wnt family, expressed in cells from a retrovirus encoding it (protein, UniProt P04426 28-370, looked up)
# Proto-oncogene Wnt-1: ANSSGRWWGIVNIASSTNLLTDSKSLQLVLEPSLQLLSRKQRRLIRQNPGILHSVSGGLQSAVRECKWQFRNRRWNCPTAPGPHLFGKIVNRGCRETAFIFAITSAGVTHSVARSCSEGSIESCTCDYRRRGPGGPDWHWGGCSDNIDFGRLFGREFVDSGEKGRDLRFLMNLHNNEAGRTTVFSEMRQECKCHGMSGSCTVRTCWMRLPTLRAVGDVLRDRFDGASRVLYGNRGSNRASRAELLRLEPEDPAHKPPSPHDLVYFEKSPNFCTYSGRLGTAGTAGRACNSSSPALDGCELLCCGRGHRTRTQRVTERCNCTFHWCCHVSCRNCTHTRVLHECL
# Key:
# [1] = tested on: C57MG mammary epithelial cell line; assay: Aβ levels in C57MG cells infected with Wnt retrovirus; format: cell-based, mouse; details: C57MG cells infected with retrovirus expressing the Wnt protein
# [2] = tested on: PC12 cells; assay: β-catenin levels in Wnt1-expressing PC12 lines; format: cell-based; details: 12 independent Wnt1-expressing PC12 lines
# Excerpt: (§1) A retrovirus encoding the Wnt1 protein was introduced into PC12 cells as described in Mol. Cell. Biol. 14:466, (1995), and twelve independent Wnt1-expressing lines were established. Wnt1 expression in the lines was examined by measuring β-catenin levels.
# [3] = tested on: PC12 cells; assay: Aβ levels by ELISA in Wnt1-expressing PC12 lines; format: cell-based; details: 12 independent Wnt1-expressing PC12 lines
# Excerpt: as §1
Molecule,Aβ levels [1],β catenin stabilization [2],levels of Aβ peptide in the cell lines ([3]; ELISA),Aβ levels in the culture media ([3]; culture media)
B1,did not show increased Aβ levels,,,
B2,increase in Aβ levels,positively correlated with the degree of β catenin stabilization,positively correlated with Wnt1 expression,positive correlation with Wnt1 expression
